We go through one substance from article PMC3610674.

For test [1], the target named is proNS5-HA (proteolytically-processed HA-tagged DENV2 NS5) (dengue virus serotype 2 (DENV2)). Description: co-IP.
Test [2] shares this target. Description: co-IP. This is another data set of the same source.

Like-named read-outs stand apart in the source and are kept apart here.

Regarding “UBR4 (human, endogenous) (from UniProt Q5T4S7 1-5183) (natural protein)”, the values for the fold UBR4 precipitated against NS5-HA (densitometry) in test [1] and in test [2] were 2 fold and 7 fold, respectively.
